# According to the DeepSol protein solubility set:
# Assay: soluble on expression in E. coli; label from the status in PepcDB or PDB records
row,Sequence,soluble on expression in E. coli
1,MLMSLSRRELIKKEIFDIEEYVPGRSIEEIASTYGLKPESIIKLGSNENPLGPSPKAVKALIEAAPGANIYPSADAHELREALSKYTGFPVSNIVASGPGMDGLLDGLCRIIIEKGDEVIVPIPTFSYYELPARACGAEPVFIRRNQDFSLNPEKILEAVSPRTKIIFLCSPNNPSGNLLPEADLRKIIENTDALVFVDEAYVEFADRNLAALVNEYDNVAVGRTFSKVFGLAGLRLGYGIMPEWLTKEYLRAATPFSVSLPALRAGLAALSDTEYLNKSINLAREGREYLKEKIPFKVYPSQANFVLVDVSPLKAKKVTESLLKKGIIVRPCDSFREAGDSFIRVTVGTPEQNEKVVRAFEISKSEV,not soluble
2,MAHHHHHHMNFPDSRVLSDEFPRRKYKPSSATRLEDIVLKGLHYGQRKLLLSEIEFLSAYLEGRQAGAKPTLVVYAGAANGSHLPFLFQLFEAVKFVLIDPAPFCDAVREISLNKQGPILDLVQGFCTDELCKQLSSSYGSTYDILLVSDIRSGVPEKQSNRENTLMIMRDNDMQRSWCWTLKAEAALLKFHPPYPPCRDRNSRHYDEADDTPESIEYLDGVRLFGVWAPKSSSELRLCVQGPFLQGTSFPMRRYDCTTHEEQCYFYNTDNRYTRDCAAESGILERYLQLFPSAPYSDPTALSMTISNFLGFPLFLPLDSSFSESDARWVTLLYSTRIPTCLELFTTLRGRVTHTVMKQLAEEWQSATTVPKGVSIDSVELTSEFWKAVCAGDLTEAYSFPNIRWRFANLLISRRRKRSASDRAP,not soluble
3,MGSDKIHHHHHHMSVLYDTIGIDYANLRKPDLRIAAQIDAALGDAQSVLNVGAGAGSYEPAGRAVTALEPSAEMIAQRPEGTAPVVQGPAEDLPFADNSFDAAMAVLTIHHWSDKARGLAEMRRVARNRAVLLTYDPAFRGQWQTEYWPGLIGLDDGAMPPMAFFEEHLGPVDTQPVLVPHDCSDGFLYAYWRRPQAYLDPRIRKGSSGFWMIDGVEEGAQRLQADLASGAWAARHAALLERENADMGYRLVIADLV,not soluble
4,MGSDKIHHHHHHMNKAERQNLIITAIQQNKKMTALELAKYCNVSKRTILRDIDDLENQGVKIYAHYGKNGGYQIQQAQSKIALNLSETQLSALFLVLNESQSYSTLPYKSEINAIIKQCLSLPQTRLRKLLKRMDFYIKFDDTQHMTLPMLFSDILIYCTERNVMLVDHRVDDNIKAENVIFIGLLCKHGHWHAVIYDIAQDKTAELEIENIIDISYSFGKTIQTRDISIDNYHQFLNPIDS,not soluble
5,MKITSYVSFLYCLCLMLASPTVQASEVRTAIFEGKPCINPPHVVGNYPATPFLFYIPTSGERPIKWHAENLPKGLKLDKETGIIKGKVVEKGTYKVMLKAENALGTDTQELLINIGDELLLTPPMGWNSWNTFGRHLTEELLLQTADAMVENGMRDLGYAFINIDDFWQLPERGADGHIQIDKTKFPRGIKYVADYLHERGFKLGIYSDAADKTCGGVCGSYGYEEIDARDFASWGVDLLKYDYCNAPAGRVEAMERYEKMGRALRATDRSIVFSICEWGQREPWKWAKKVGGHLWRVSGDIGDLWNRSTDEKGGLRGILNILEINAPLSEYARPGGWNDPDMLVVGIGGKSKSIGYESEGCTNEQYQSHFALWCMMASPLLCGNDVRQMNDSTLQILLNKDLIAINQDPLGIQAERAIRADHYDVWVKPLSDGSKAIACLNRISGPVDVELNVKTVEGLSLDRVYDVIEGSLVAEASTGWVVKLAPGECKVFICKLEHHHHHH,not soluble
6,GPGSMDCWNTRRDSKEFQHEAVEMDSLQANCGAPNEQAFHDTLVSAAYQLRARQRDTNVSISKAEMEGLVVLTRELENFKQMMKRSEFTVEGTWRIVEDGGMVERFGQQLYAELLTRNPRLRVHFHGVDIEEQSKSLLRMVGTAVHFYQKPQLTVDMFTKAGARHRGYGVNAEVFVEMRNAFMRVFSEFVGTDVFEAVEEEWRKFWKYVLDLLVHGSESAEGERYGKMYEEKMLKTIQADFKLIMERQNKCDLRGQFVSVMYSKAIEMHEELSKFEALKDLRASARVLQAYIDIINNIHDKKLLDEYMRELGGRHTAYNVTVENLQAFTEPFLFTCRHFFEEEWNIAAESRFLWLFEYMIDGISAGMVSDINSIVNLRAPSNSVTFGLIFTDIEASTRLWSKDSKSMSLAVKSHHAMIRRLIADYGAYEVKTVGDSFIIATKDVLVAVKLSLAIQLELMRMAPIAPGFAMVDSTEGHGDPQAWDDRTLRVRIGVEHCTDATATYDTIHRRYDYYGASVNRCARIEAAACGGQILLCRESFEYLKSMPEFHNDPCPHFLRHVEIATPPPKVDSRGLDHFVVVSDVGLASFKGIAEPVHLLSLVPRCLAGRQFTEKFTKVSE,not soluble
7,GPGSMTELVPPEAIRFANGEPLCAYHECYRCFDGRDILFRLVNVEKKQWFFYNDTADTIAHVRAVFYPGSVIRPLQRADMHVIPGPTGVADETCSIEVTLDIQPGFTESFIEGEHKGFHLEFRTETAPTKEVVFEYRRPMVPYDKIYRCFKNGNGLLFRLVDERVRQWFFYNDTRDLMMKVSVTFANSAEVRPLGCTALGAPHADTAPESVVYTLLIAPGCTEPFIEGNPVTYTLEFAAEPVDAPVTPVLEEPVQYLHGSPDVAVIPHQTHVFKCFKEHGNGLLFRVVDDVNTIWAFYNDTPDYVMTANMRYPSTSDIRLAPGVQVIADSEREGGFVAAVEVLPLATVPFLVGSPEQYELAFAATPVAPLTPSPTTSPEPSSPPQLADAADAAATVPPALPVPEEAPVYCNSGPDLTVMPNIDEVYKCFKDYGNGLVFRLVDKVQRRWAFYNDTTDIVALVRVQFSPGAHIQPLGHTVLGCDLESGSVLHELRVNPLETALFVEGDVDIFTTKFVAEEIQT,soluble
8,GIVPYGGNLTVLDLVQKYIGQKKGVRHNTQANYDFVINIIKKEEFGTRRIDKIKLSDAKAWFIKLQADGRGYSSIHSVRGIVRPAFQMAVEDDLLRKNPFEFQLCTVVVNDSVTRQAITKEQEELFLEFIRNDDHYSKYYNGMFILFKTGLRISEFCGLTVKDIDLQERKINVNHQLQRTRGMQYVIEDTKTSSGTRMLPMTDEVYECFEQIVKNRKKVRVEPIVDGYSRFLFLDKKDMPEVALHWEKHFQWALGKYNRTHEEQMPKITPHVCRHTYCSNMAKAGMNPKALQYLMGHSDIGVTLNVYTHLGLIDAKEEMNRIAKLA,not soluble
9,MSLQNTVPSETPSPATPSPTSTVNLSDVSSDYWARPFIQAMADNNVIAGFPDGSFRPNQAVTRAEFAALIQKAFPNQNRVRQLSAGGFRDVPAGYWAISPIQYAYETGFLAGYPGNVFSPNQQIPKVQAIVAMTSGLGLTASNTGASTDLSTYYTDASSIPQYAIASVTTATQSNIVVNYPDVKQMNPQQPLTRAEVAALLYQALAKQGRVQPIASNLPASQYIVGGTEGHHHHHH,soluble
10,MMRGSHHHHHTDPISYIIRKADSVNKALDSAVPLREPLKIHEAMRYSLLAGGKRVRPVLCIAACELVGGEESLAMPAACAVEMIHTMSLIHDDLPCMDNDDLRRGKPTNHKVYGEDVAVLAGDALLSFAFEHLASATSSEVSPARVVRAVGELAKAIGTEGLVAGQVVDISSEGLDLNNVGLEHLKFIHLHKTAALLEASAVLGGIIGGGSDEEIERLRKFARCIGLLFQVVDDILDVTKSSKLTYPKLMGLEKSREFAEKLNTEARDQLLGFDSDKVAPLLALANYIANRQN,soluble
11,MGSDKIHHHHHHMSNNSKISWTTTTWNVTAGCDPISDGCKNCYARMMAERLKAMGQAKYQNGFIPTIHSECLNEPFGWKGNKLVFVVSMGDLFHKDIPFDFIDKVIEVITKCPQHTFQILTKRAERMYEYFSTHAIPENVWLGVTVENQKVKGRIDYLKKLDAPVRFLSCEPLLEDLGTLDLSDIDWVIVGGESGNRARKVEKDWILNIKSQCDASTSTAFFFKQWGTWGADGVKRSAKENGCLLDGKEYHAYPTPRKIKP,not soluble
12,MATESALIKVHVKSPSNKYDVEIAADASVSELKDKVLVFVPTANKEQVCIIYTGKILKDEETLTQHKIADGHTVHLVIRNQARPTPAPAAATPTASSAPSSNPTPSSQPNPTNNPFAAMGGMGSPADILNNPDAMRSVMDNPITQQLLGNPEFMRTIIQSNPQFQALIERNPEVGHILNDPNVMRQTMEMIRNPNMFQEMMRNHDQAIRNLQGIPGGEAALERLYNDVQEPLLNSATNSLSGNPFASLRGDQSSEPRVDRAGQENNEALPNPWASNANQATNNQSNNRSADFNSLLDSPGISSLMEQMMSNPSMQASMFSPEVINSIRQNMSNNPGLIDSIVGQIPSARDNPQISEGIRRSFPQMLNMMSDPSVMEAMRNPRVSEAFRQIQEGFSTLRREAPQLLNLFQAGAMGGGAFGSDANASSAGANSANGLADLFNSMNMGGGRPSSTAAPVNPEQTYASQLEQLQSMGFSDRARNVAALTATFGDLNAAVERLLNSP,not soluble
13,MDVFDGLPDPIIVDILNKVGDVKTLLRCSSLSKRFNSLVPQSESLTLRLDHSVSDSPVVTSIFRSLFNGLVSLLSKPAKPITITTLSPSLPFKILSRFDRIRNLDVELPGGDVKLEKGAAVKWKAEFGKTLKSCVIVAFRSAGTVSSPVAVEGESDAEFVTGLKTRVVWTISALMAASSRHYLMREVVKEHEEIESLVMRDKEREGTVVMNEEGLKELRNTEARVEDEERVVKNKRSVVPSVRMSMRHAPSLKLKSGICLESATLVIVRPSGADFEVGDDAELATEAFVGDCMYGEAVVALLKCKKNALEMNSF,not soluble
14,MSLKKQPLAYRMRPSNIDEVIGQQHLVGEGKIIRRMVDAGQLSSMILYGPPGVGKTSIAQAIAGSTDTHYKLLNAVVNNKKDMEIVVEEAKMSGQLILILDEVHRLDKGKQDFLLPHLEKGLLILIGATTANPFHSINPAIRSRCQIFELTPLTTDEIKVALTRALTDKTHGLGEEPVVISDEALAHFAFACGGDVRSALNGLELAVRSTQPNVKGEKEITLSVAEECIQRKSFHHDKDGDAHYDVLSAFQKSIRGSDVNAALHYLARLIEAGDLVSIGRRLLVIAYEDIGLANPQAGPRTLAAIEAAERLGFPEGRIPLANAVVELCLSPKSNSAYVALDAAIADIRKGHVGSVPAHLKDAHYKGAEQLGRGIGYKYPHDYERGWVKQQYLPDSLKSRAYYEPKRTGKFEDALADVYEKLRKSTFSEGHHHHHH,soluble
15,MVTKEVGHDFLARLGKKRLRPGGVEATNWLIEQGQFSQDCHVLEVACNRCTTAIELAKTFGCQIDAVDLNPKVVKEAQERVAVEGLTRHITVSQASALSLPFPDNHFDIVINEAMLTMLNAQAKEKALNEYWRVLKPGGRLLTHDVAYEDPKTRQVLDELRQTIHVNVAPLSLTGWQALYQEHGFSQVTYHHGKMSLMTPRGMIKDEGLMNTLNIMRRGLKKENRQQFLKMRRFFTRTGKNLCYIAVKSVK,not soluble
16,SLANIREIAKRAGISIATVSRHLNNTGYVSEDAREKIQKVVDELNYTPNALARAMFTKNSKTIGLMVPNISNPFFNQMASVIEEYAKNKGYTLFLCNTDDDKEKEKTYLEVLQSHRVAGIIASRSQCEDEYANIDIPVVAFENHILDNIITISSDNYNGGRMAFDHLYEKGCRKILHIKGPEVFEATELRYKGFLDGARAKDLEIDFIEFQHDFQVKMLEEDINSMKDIVNYDGIFVFNDIAAATVMRALKKRGVSIPQEVQIIGFDNSFIGELLYPSLTTINQPIEALAYTIIELLIKIINGEGVLIEDYIMEVKLIERETTISLKDEG,soluble
17,GEADSGDGDSSEYQDGKEFGIGDLVWGKIKGFSWWPAMVVSWKATSKRQAMSGMRWVQWFGDGKFSEVSADKLVALGLFSQHFNLATFNKLVSYRKAMYHALEKARVRAGKTFPSSPGDSLEDQLKPMLEWAHGGFKPTGIEGLKPNNTQP,soluble
18,MSLSRLPLIGVTACSRQIGLHAYHISGDEYVHAVASAAQGVPVIIPSMAELLSPSDILDGLDGILFTGSPSNIEPFHYQGPASAPGTAHDSARDAATLPLLSAAVASGVPVLGICRGFQEMNVALGGSLHQNVQQVQPFMDHRHAEQPGQPLDAWYAPAHDLHIKAGGVLAGLGLPERIQVNSIHAQGVERLAPGLRVEALAPDGLVEAVSVEASKAFALGVQWHPEWQVSCNPHYLAIFQAFGDACRKRARQRDAEASHKEGHHHHHH,soluble
